B1: TPR t1 (parent)
chain: GACCAAUCUGCCCUCAGAGCUCGAGAACAUCUUCGGAUGCAGAGGAGGCAGGCUUCGGUGGCGCGAUAGCGCCAACGUCCUCAACCUCCAAUGCAUCCCACCACAUGAUGAUGCCUGAAGAGCCUUGGUUUUUUG

Variants of: B1
Test: polymerase ribozyme fitness, log enrichment relative to wild type (log ratio); higher = more active; in vitro selection for triplet polymerase activity
Outline: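 Input and output libraries were sequenced on Illumina after a single in vitro selection round, run in triplicate on PCR-built, transcribed mutant libraries of each subunit of a heterodimeric triplet polymerase ribozyme. Selection annealed libraries to a biotinylated primer, the partner subunit and triplets, incubated them frozen at −7 °C, then gel-excised extended constructs for streptavidin-bead capture and RT-PCR. Genotypes with ≥10 input reads and ≥1 read per output were kept. Fitness is the logarithm, taken in base 2, of genotype enrichment divided by wild-type enrichment, using inverse-variance-weighted replicate averages.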

Variant | polymerase ribozyme fitness (log ratio)
G60U C115A U125G | 0.39
G60U G61C | -1.45
G60U G63A C97A C99A A111U G122U U130A | -6.95
G60U G69A | -4.86
G60U G93U A108G G120U | -3.22
G60U G110A | -1
G60U G110U | -0.553
G60U G117A | -0.487
G60U G117C | -3.52
G60U G120A C124A | 1.48
G60U U78A C89G | -1.87
G60U U78C | -0.915
G60U U87A | 0.377
G60U U87G U129G | -0.951
G60U U112A | 1.6
G60U U112G U116C | -1.99
G60U U130C | 0.326
G61A A75U U96G A121G U129C G135U | 0.938
G61A A83G G113A U130G | -1.85
G61A A100C | -0.823
G61A A108U G120U | -6.8
G61A A111C | -0.072
G61A A111U G128C U133G | -4.57
G61A A111U U116C | -4.5

Variant | polymerase ribozyme fitness (log ratio)
G61A A121G | 1.21
G61A C64U | -1.86
G61A C64U C72U A91U | -1.32
G61A C64U U81G G120U | -7.13
G61A C70G | -4.02
G61A C72A | -0.462
G61A C73A G127A | -1.74
G61A C73U A91C C101A | -2.91
G61A C79A | -2.09
G61A C80A | -3.47
G61A C85G | 0.134
G61A C86U U116A G117A | -2.15
G61A C88G C98G C123G | -6.3
G61A C88G C104U C123G | 1.29
G61A C88G G120A A121C G135U | -0.364
G61A C88U | -0.64
G61A C88U A100U G120A | -0.447
G61A C88U A105G | -2.9
G61A C97A | -3.78
G61A C98A | -4.75
G61A C98U | -0.37
G61A C98U G120U | -0.011
G61A C101A U116A G128C | -6.04
G61A C102U | -1.04

Variant | polymerase ribozyme fitness (log ratio)
G61A C104A | -1.95
G61A C104A G110A | -3.83
G61A C115A U129A U132A | -3.87
G61A C124G | 1.77
G61A G69A | -4.21
G61A G69C U116C | -4.59
G61A G71U | -1.6
G61A G77A A95U | -1.47
G61A G77A C89U U126A | -2.77
G61A G107A | -3.6
G61A G113A | -0.325
G61A G113C G128U | -4.09
G61A G120A U133A | 0.274
G61A G128C | -1.93
G61A U67A | -6.59
G61A U78G C123A U133A | 0.482
G61A U87C | -0.201
G61A U92C | -0.505
G61A U106G C114U | -3.24
G61A U112C U129A | 1.39
G61A U116G A121U | 0.807
G61A U129G U130A | -2.53
G61C A66C G135U | -4.47
G61C A66U | -0.911

Variant | polymerase ribozyme fitness (log ratio)
G61C A74U | -4.43
G61C A83U G113C G120U U132A | -4.78
G61C A84U | -1.95
G61C A111C | -1.98
G61C A111G | -0.983
G61C C64G A111C | -6.11
G61C C79A A95G G127A | -3.63
G61C C79U G117A G128A | -4.76
G61C C85U | -1.81
G61C C86A | -2.15
G61C C88U | -1.5
G61C C88U A90C G110U | -5.87
G61C C89A | -3.5
G61C C89A A121G | -2.4
G61C C101G U112C | -2.46
G61C C114A | -2.18
G61C C123A | -0.578
G61C G107A | -6.66
G61C G117A | -2.2
G61C G120A | 0.0588
G61C G122A | -2.5
G61C G128A | -3.41
G61C G128U | -3.46
G61C U78A G93A U96A | -1.93

Variant | polymerase ribozyme fitness (log ratio)
G61C U78C U133A | -3.51
G61C U78G | -4.7
G61C U87A | -1.83
G61C U87A C102A | -5.28
G61C U106C | -2.89
G61C U129A | -3.33
G61U A66C | -3.18
G61U A66C C114A | -2.88
G61U A75G C82G A100C G113U | -5.51
G61U A83C C89G | -1.83
G61U A91G G93A A105U G117U | -6.5
G61U A103G | -4.75
G61U A121U | 1.48
G61U C70G | -4.08
G61U C79A | -0.952
G61U C79A C104U | -0.851
G61U C80A | -2.59
G61U C82G C94U | -0.714
G61U C86G | -1.55
G61U C94G | -0.934
G61U C94U U112A C115G | -0.199
G61U C97A A100C | -3.32
G61U C99A C115A C124A | -4.46
G61U C114A | -1.12

Variant | polymerase ribozyme fitness (log ratio)
G61U C123U | 1.8
G61U C124A | 1.54
G61U G107U | -4.51
G61U G110C | -2.85
G61U G110U | -0.117
G61U G113C | -1.82
G61U G127C | -0.698
G61U G135U | -1.65
G61U U78C G113C U130G | -2.86
G61U U78C U116A | -2.17
G61U U81A C82U A119G G122U U125A U129C | -1.8
G61U U87C | 0.519
G61U U92C | -1.84
G61U U106C | 0.11
G61U U109A | -3.77
G61U U112C | 0.845
G61U U129A | -1.21
G61U U129C | -0.253
G61U U130G | -0.614
C62A A91C C98G A111C C115U A118U G122A U126G | -7.7
C62A A91G | -2.78
C62A A118C | -2.96
C62A A121U | 1.32
C62A C72G | -2.09

Variant | polymerase ribozyme fitness (log ratio)
C62A C72U | -1.74
C62A C73G G117C U129G | -6.43
C62A C79A | -3.89
C62A C79U | -0.345
C62A C82A | -0.246
C62A C82A A121G | 1.58
C62A C82G G117A | -3.75
C62A C82U A91G C101G C123U G128U | -3.86
C62A C86A | -2.26
C62A C89A | -3.57
C62A C98U | -2.2
C62A C99U C124A | -4.32
C62A C101G | -2.98
C62A C101G C104U | -2.15
C62A C102A | -3.33
C62A G77A | -2.78
C62A G77U | -1.77
C62A G113C | -3.31
C62A G117C U133A | -5.95
C62A G120A U133A | -0.165
C62A G127A | -2.22
C62A G127C | -1.29
C62A G128A | -2.62
